For one molecule, FRET efficiency results are on record in publication PMC4713135.

For this assay, the target named is EGFP-Rab5 (wild type) (UniProt P20339). In words: FRET or BRET. In general terms: BRET reads energy transfer from a luciferase to a nearby fluorophore.
Sequence of UniProt P20339 (P20339 whole entry): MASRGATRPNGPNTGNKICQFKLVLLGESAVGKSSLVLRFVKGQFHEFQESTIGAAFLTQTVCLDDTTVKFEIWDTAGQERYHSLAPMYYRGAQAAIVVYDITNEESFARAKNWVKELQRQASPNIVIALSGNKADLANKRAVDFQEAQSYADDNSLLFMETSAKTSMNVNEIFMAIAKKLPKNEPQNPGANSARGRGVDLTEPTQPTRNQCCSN

B1: mRFP-DRG2 (human DRG2) (natural protein)
chain: MGILEKISEIEKEIARTQKNKATEYHLGLLKAKLAKYRAQLLEPSKSASSKGEGFDVMKSGDARVALIGFPSVGKSTFLSLMTSTASEAASYEFTTLTCIPGVIEYKGANIQLLDLPGIIEGAAQGKGRGRQVIAVARTADVIIMMLDATKGEVQRSLLEKELESVGIRLNKHKPNIYFKPKKGGGISFNSTVTLTQCSEKLVQLILHEYKIFNAEVLFREDCSPDEFIDVIVGNRVYMPCLYVYNKIDQISMEEVDRLARKPNSVVISCGMKLNLDYLLEMLWEYLALTCIYTKKRGQRPDFTDAIILRKGASVEHVCHRIHRSLASQFKYALVWGTSTKYSPQRVGLTHTMEHEDVIQIVKK
For the molecule B1, the FRET efficiency stood at 10%.
